B1: M-phase phosphoprotein 8 (Homo sapiens), Q99549 (parent)
chain: MEQVAEGARVTAVPVSAADSTEELAEVEEGVGVVGEDNDAAARGAEAFGDSEEDGEDVFEVEKILDMKTEGGKVLYKVRWKGYTSDDDTWEPEIHLEDCKEVLLEFRKKIAENKAKAVRKDIQRLSLNNDIFEANSDSDQQSETKEDTSPKKKKKKLRQREEKSPDDLKKKKAKAGKLKDKSKPDLESSLESLVFDLRTKKRISEAKEELKESKKPKKDEVKETKELKKVKKGEIRDLKTKTREDPKENRKTKKEKFVESQVESESSVLNDSPFPEDDSEGLHSDSREEKQNTKSARERAGQDMGLEHGFEKPLDSAMSAEEDTDVRGRRKKKTPRKAEDTRENRKLENKNAFLEKKTVPKKQRNQDRSKSAAELEKLMPVSAQTPKGRRLSGEERGLWSTDSAEEDKETKRNESKEKYQKRHDSDKEEKGRKEPKGLKTLKEIRNAFDLFKLTPEEKNDVSENNRKREEIPLDFKTIDDHKTKENKQSLKERRNTRDETDTWAYIAAEGDQEVLDSVCQADENSDGRQQILSLGMDLQLEWMKLEDFQKHLDGKDENFAATDAIPSNVLRDAVKNGDYITVKVALNSNEEYNLDQEDSSGMTLVMLAAAGGQDDLLRLLITKGAKVNGRQKNGTTALIHAAEKNFLTTVAILLEAGAFVNVQQSNGETALMKACKRGNSDIVRLVIECGADCNILSKHQNSALHFAKQSNNVLVYDLLKNHLETLSRVAEETIKDYFEARLALLEPVFPIACHRLCEGPDFSTDFNYKPPQNIPEGSGILLFIFHANFLGKEVIARLCGPCSVQAVVLNDKFQLPVFLDSHFVYSFSPVAGPNKLFIRLTEAPSAKVKLLIGAYRVQLQ

Variants of: B1
Conditions: with h31_human H3C1, P68431
In the case of W80A, the “effect of a mutation on the interaction” value is reported as “disrupting interaction”.
